Assay results: patent CN115521378A (NANJING JISHENG AOMA BIOLOGICAL PHARMACEUTICAL CO LTD, dated 2022)

Target: T1, PD-L1蛋白 (human, UniProt Q9NZQ7 19-238, limits assumed)
T1 construct: also called 人PD-L1蛋白; CD274
Assay: competition ELISA: PD-L1 coated, biotinylated PD-1 at 1 ug/mL as competitor, HRP-streptavidin read-out

T1 sequence (Q9NZQ7 19-238 limits assumed): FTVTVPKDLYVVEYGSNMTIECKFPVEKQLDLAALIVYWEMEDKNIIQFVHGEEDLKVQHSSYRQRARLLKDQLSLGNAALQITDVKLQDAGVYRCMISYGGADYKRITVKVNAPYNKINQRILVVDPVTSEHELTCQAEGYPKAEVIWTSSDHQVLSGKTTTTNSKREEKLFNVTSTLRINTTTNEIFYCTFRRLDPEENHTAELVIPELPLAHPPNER

IC50: 1.23 nM
B1: 13H6D3 (antibody, V domains shown)
VH: QVQLQQPGADLVKPGASVKLSCKASGYTFTSNWMHWMKQRPGQGLDWIGMIHPNSAIKYNEKFKSRASLTADKSSSTAYMQLSSLTSEDSAVYYCARSYYGSSPYFFDYWGQGTTLTVSS
VL: DIQMTQTTSSLSASLGDRVTISCRASQDISKYLNWYQQKPDGTVKFLIYYTSRLHSGVPARFSGSGSGTDYFLTISNLEQEDVATYFCQQGDTLPWTFGGGTKLEIK
notes: Only variable domains are tied to the name; also called 克隆 13H6D3
